# Test results as given in patent publication US12551596B2, “Delivery systems for administration of cationic biological actives” (Allvivo Vascular, Inc., priority 2017, dated 2026).
# Assay: Stability of ASP-1 in PU 077 catheter coating after EO sterilization and storage, HPLC
# Format: physicochemical
# Settings: coated on catheters, EO sterilized, stored at room temperature up to 9 months
# Procedure: Composition (lot K-132, Table 9.1) comprising ASP-1 peptide (SEQ ID NO: 17 in Table A), custom synthesized hydrophilic medical grade polyurethane (PU 077), polyoxyl 15 hydroxystearate (PEG-15-HS) and citric acid monohydrate (CAxH2O) was prepared by dissolving components in MEK/ethanol solvent and dip coated on 7 Fr triple lumen catheters.
# The obtained ASP-1 coated catheters were sterilized by ethylene oxide (EO) gas, vacuum dried and pouched in aluminum foil bags supplied with a desiccant pouch. Peptide purity and recovery from coatings before EO sterilization and after EO sterilization and storage was measured by HPLC after full extraction from catheters.
sequence,measurement,value
RRWVRRVRRWVRRVVRVVRRWVRR (Antimicrobial peptide) [ASP-1],stability of ASP-1 peptide in catheter coating,good stability
